In patent EP4671282A1 (Jiangsu Hengrui Pharmaceuticals Co., Ltd., dated 2025):
Read-outs that look alike come from different tables or passages of the source.

What was measured:
[1] = molecular target: T1, human IL-23 protein (Sino Biological, CT048-H08H) (human, UniProt Q9NPF7 20-189; P29460 23-328); assay: cell-based or functional assay
T1 sequence (looked up) 1: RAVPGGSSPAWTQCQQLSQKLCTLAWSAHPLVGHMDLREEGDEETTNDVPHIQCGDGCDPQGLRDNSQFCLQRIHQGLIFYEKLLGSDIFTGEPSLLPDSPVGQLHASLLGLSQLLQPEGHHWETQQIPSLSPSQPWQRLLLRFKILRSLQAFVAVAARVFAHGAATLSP
T1 sequence (looked up) 2: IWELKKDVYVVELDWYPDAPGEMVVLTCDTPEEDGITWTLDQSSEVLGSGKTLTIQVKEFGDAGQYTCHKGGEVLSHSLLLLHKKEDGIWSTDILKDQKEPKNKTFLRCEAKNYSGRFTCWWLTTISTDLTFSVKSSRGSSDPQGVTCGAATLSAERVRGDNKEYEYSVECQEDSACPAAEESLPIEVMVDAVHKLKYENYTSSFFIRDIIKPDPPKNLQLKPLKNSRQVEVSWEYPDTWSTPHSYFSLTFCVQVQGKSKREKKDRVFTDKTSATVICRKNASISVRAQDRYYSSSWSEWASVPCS

[2] = molecular target: T1, human IL-23 protein (Sino Biological, …); assay: ELISA, test sample coated, His-tagged IL-23 in solution
[3] = molecular target: T1, human IL-23 protein (Sino Biological, …); assay: SPR (Biacore 8K), antibody captured on Protein A chip, IL-23 as analyte
[4] = molecular target: T1, human IL-23 protein (Sino Biological, …); assay: competition ELISA, IL-23R coated, biotinylated IL-23 preincubated with antibody
[5] = molecular target: T1, human IL-23 protein (Sino Biological, …); assay: SPR (Biacore 8K), antibody captured on Protein A chip, IL-23 as analyte; remark: listed apart in the source
[6] = molecular target: T2, IL-23 (R&D Systems, 1290-IL-010) (UniProt Q9NPF7 20-189; P29460 23-328); assay: cell-based or functional assay
T2 sequence (looked up) 1: T1 sequence (looked up) 1
T2 sequence (looked up) 2: T1 sequence (looked up) 2

[7] = molecular target: T3, Human IL-36R protein (His + Avi Tag), Kactus IL1-HM4L2 (human, UniProt Q9HB29 20-335); assay: SPR (Biacore 8K), antibody captured by anti-human IgG Fc, IL-36R as analyte
T3 construct: Bought protein; also called human IL-36R antigen protein; Human IL-36R antigen
T3 sequence: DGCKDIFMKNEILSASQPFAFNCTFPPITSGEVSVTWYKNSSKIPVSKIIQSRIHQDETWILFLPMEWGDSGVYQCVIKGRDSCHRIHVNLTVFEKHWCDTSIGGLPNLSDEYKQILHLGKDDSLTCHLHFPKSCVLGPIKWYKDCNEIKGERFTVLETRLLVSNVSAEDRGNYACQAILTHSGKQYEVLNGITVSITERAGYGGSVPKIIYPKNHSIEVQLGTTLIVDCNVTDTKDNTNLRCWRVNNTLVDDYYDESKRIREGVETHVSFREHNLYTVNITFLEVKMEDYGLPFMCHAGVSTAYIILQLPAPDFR

[8] = molecular target: T4, human IL-36R full-length protein stably expressed on CHO-K1 cells (human, UniProt Q9HB29 20-575); assay: FACS, CHO-K1 cells overexpressing human IL-36R
T4 construct: FlpIn CHO-K1 line expressing the full-length protein; also called human IL-36R on the surface of CHO-K1 cells; CHO-K1 cells overexpressing human IL-36R
T4 sequence: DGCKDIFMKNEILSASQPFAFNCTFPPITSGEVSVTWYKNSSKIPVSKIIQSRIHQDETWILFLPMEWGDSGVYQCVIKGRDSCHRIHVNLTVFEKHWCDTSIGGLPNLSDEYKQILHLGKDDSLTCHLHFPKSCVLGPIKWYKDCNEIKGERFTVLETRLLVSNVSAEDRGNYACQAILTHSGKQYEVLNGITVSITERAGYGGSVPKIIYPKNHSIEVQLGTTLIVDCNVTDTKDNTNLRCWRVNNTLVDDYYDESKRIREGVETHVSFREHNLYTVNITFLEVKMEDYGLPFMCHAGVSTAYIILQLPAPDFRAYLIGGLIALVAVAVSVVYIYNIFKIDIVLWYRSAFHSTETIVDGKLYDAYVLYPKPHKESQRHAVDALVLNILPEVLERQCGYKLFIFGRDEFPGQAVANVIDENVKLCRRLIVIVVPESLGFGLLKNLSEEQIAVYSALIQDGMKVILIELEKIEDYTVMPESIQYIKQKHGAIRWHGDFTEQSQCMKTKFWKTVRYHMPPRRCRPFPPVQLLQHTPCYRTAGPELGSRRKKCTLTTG

[9] = molecular target: T5, IL-36R on human skin squamous cell line A431 (human, UniProt Q9HB29 20-575); assay: cell-based or functional assay
T5 sequence (looked up): T4 sequence

[10] = molecular target: T4, human IL-36R full-length protein stably …; assay: FACS, CHO-K1 cells overexpressing human IL-36R; remark: listed apart in the source
[11] = molecular target: T5, IL-36R on human skin squamous cell line …; assay: cell-based or functional assay; remark: listed apart in the source
[12] = molecular target: T4, human IL-36R full-length protein stably …; assay: FACS, CHO-K1 cells overexpressing human IL-36R; remark: listed apart in the source
[13] = molecular target: T6, human IL-23 protein (ACROBiosystems, ILB-H52W5) (human, UniProt Q9NPF7 20-189; P29460 23-328); assay: SPR (Biacore 8K), antibody captured by anti-human IgG Fc, IL-23 as analyte
T6 construct: Bought protein; construct not described; also called Human IL-23 antigen; human IL-23 antigen protein
T6 sequence (looked up) 1: T1 sequence (looked up) 1
T6 sequence (looked up) 2: T1 sequence (looked up) 2

[14] = molecular target: T3, Human IL-36R protein (His + Avi Tag), …; assay: SPR (Biacore 8K), antibody captured by anti-human IgG Fc, IL-36R as analyte; remark: listed apart in the source
[15] = molecular target: T6, human IL-23 protein (ACROBiosystems, …); assay: ELISA, human IL-23 coated

B1: chimeric antibody Ch29 (antibody, human IgG1, kappa, L234A L235A, V domains shown)
VH: QVQLKESGPGLVAPSQSLSITCTVSGFSLTSYAISWVRQPPGKGLEWLGVIWTGGGTNYNSGIKSRLTISKDNSKSQVFLNMNSLQTEDTARYYCVREGDYGSYAGAMDYWGQGTSVTVSS
VL: DIVLTQSPASLAVSLGQRATISCRASESVDYYGISSMHWFQQKPGQPPKLLIYRASNLESGIPARFSGSGSRTDFTLTINRVETDDVATYYCQQANKDPYTFGGGTKLEIKR
Activity in inhibiting proliferation of BaF3-IL-23R cells (IC50, nM) [1]: 0.175 nM | EC50 [2]: 1.16 nM | Kd [3]: 0.0207 nM | koff [3]: 8.4e-05 s⁻¹ | kon [3]: 4.05e+06 M⁻¹ s⁻¹ | IC50 [4]: 0.386 nM

B2: Hu29-24 (humanized anti-IL-23 antibody) (antibody, human IgG1, kappa, L234A L235A)
heavy: not shown
light: DIVLTQSPDSLAVSLGQRATINCRASESVDYYGISSMHWFQQKPGQPPKLLIYRASNLESGIPARFSGSGSRTDFTLTISSLQAEDVAVYYCQQANKDPYTFGGGTKVEIKRTVAAPSVFIFPPSDEQLKSGTASVVCLLNNFYPREAKVQWKVDNALQSGNSQESVTEQDSKDSTYSLSSTLTLSKADYEKHKVYACEVTHQGLSSPVTKSFNRGEC
Activity in inhibiting proliferation of BaF3-IL-23R cells (IC50, nM) [1]: 0.178 nM | Kd [5]: 0.0149 nM | IC50 for inhibiting IL-17 secretion [6]: 0.0289 nM | EC50 [2]: 1.22 nM | IC50 [4]: 0.488 nM

B3: BI655130 (anti-human IL-36R antibody from Boehringer Ingelheim) (antibody, human IgG1, kappa, L234A L235A, V domains shown)
VH: QVQLVQSGAEVKKPGASVKVSCKASGYSFTSSWIHWVKQAPGQGLEWMGEINPGNVRTNYNENFRNKVTMTVDTSISTAYMELSRLRSDDTAVYYCTVVFYGEPYFPYWGQGTLVTVSS
VL: QIVLTQSPGTLSLSPGERATMTCTASSSVSSSYFHWYQQKPGQAPRLWIYRTSRLASGVPDRFSGSGSGTDFTLTISRLEPEDAATYYCHQFHRSPLTFGAGTKLEIKR
notes: Control, self-expressed according to WO2013074569A1; also called B1655130
Kd [7]: 7.16 nM | koff [7]: 9.54e-05 s⁻¹ | kon [7]: 13300 M⁻¹ s⁻¹ | EC50 [8]: 0.75 nM | Maximum MFI [8]: 12900 MFI | IL-36α-induced A431 IL-8 secretion IC50 [9]: 0.06 nM | EC50 [10]: 0.51 nM | Maximum MFI [10]: 13400 MFI | IL-8 secretion (A431), IL-36α, IC50 [11]: 0.26 nM | IL-8 secretion (A431), IL-36β, IC50 [11]: 0.1 nM | IL-8 secretion (A431), IL-36γ, IC50 [11]: 0.04 nM | EC50 [12]: 0.51 nM | Maximum MFI [12]: 14200 MFI

B4: H4H14706P2 (anti-human IL-36R antibody from Regeneron) (antibody, human IgG4 S228P, kappa, V domains shown)
VH: EVQLVESGGGLVQPGRSLRLSCTASGFTFDDYAIHWVRQSPGKGLEWVSVISWNSDVIGYADSVKGRFTISRDNAKNSLYLQMNSLRAEDTALYYCAKGYNWNFFDYWGQGTLVTVSS
VL: EIVLTQSPATLSLSPGERATLSCRASQSVSSYLAWYQQKPGQAPRLLIYNAANRATDIPARFSGSGSGTDFTLTISSLEPEDFAVYYCQQRSNWPLTFGGGTKVEIKR
notes: Control, self-expressed according to WO2020018503A2
Kd [7]: 6.4 nM | koff [7]: 0.000364 s⁻¹ | kon [7]: 56800 M⁻¹ s⁻¹ | EC50 [8]: 0.64 nM | Maximum MFI [8]: 10600 MFI | IL-36α-induced A431 IL-8 secretion IC50 [9]: 0.15 nM | EC50 [10]: 0.37 nM | Maximum MFI [10]: 10900 MFI | IL-8 secretion (A431), IL-36α, IC50 [11]: 0.64 nM | IL-8 secretion (A431), IL-36β, IC50 [11]: 0.26 nM | IL-8 secretion (A431), IL-36γ, IC50 [11]: 0.06 nM | EC50 [12]: 0.51 nM | Maximum MFI [12]: 11200 MFI

B5: IL-36R-IL-23-03 (anti-IL-36R and anti-IL-23 bispecific antibody, VHH213_Hu07 on Hu29-19, Structure B) (bispecific antibody, human IgG1, kappa, L234A L235A)
heavy: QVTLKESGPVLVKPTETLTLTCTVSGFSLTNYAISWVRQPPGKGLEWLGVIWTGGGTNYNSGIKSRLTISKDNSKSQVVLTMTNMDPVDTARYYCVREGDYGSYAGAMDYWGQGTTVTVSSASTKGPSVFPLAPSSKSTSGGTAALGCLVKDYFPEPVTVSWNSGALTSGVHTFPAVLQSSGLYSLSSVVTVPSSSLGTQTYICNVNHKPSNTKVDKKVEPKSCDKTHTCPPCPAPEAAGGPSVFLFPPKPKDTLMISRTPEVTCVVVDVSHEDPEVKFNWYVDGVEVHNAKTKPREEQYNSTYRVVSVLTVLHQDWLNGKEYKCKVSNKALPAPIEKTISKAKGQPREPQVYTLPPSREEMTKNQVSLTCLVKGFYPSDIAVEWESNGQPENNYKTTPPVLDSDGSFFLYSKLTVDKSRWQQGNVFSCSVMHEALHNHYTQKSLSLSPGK
light: EVQLVESGGGLVQPGGSLRLSCAASGNTFSRYCMGWFRQAPGKELVGVAAIDSDGDTSYADSVEGRFTISRDNAKNTLYLQMNSLRAEDTAVYYCAADFTPSAPPRMGSGGYCFGDYWGQGTLVTVSSGGGGSGGGGSDIVLTQSPDSLAVSLGERATINCRASESVDYYGISSMHWFQQKPGQPPKLLIYRASNLESGIPARFSGSGSRTDFTLTISSLQAEDVAVYYCQQANKDPYTFGGGTKVEIKRTVAAPSVFIFPPSDEQLKSGTASVVCLLNNFYPREAKVQWKVDNALQSGNSQESVTEQDSKDSTYSLSSTLTLSKADYEKHKVYACEVTHQGLSSPVTKSFNRGEC
notes: VHH fused by a (G4S)2 linker to the N-terminus of the light chain; IgG1 L234A/L235A
Kd [13]: 0.0517 nM | koff [13]: 4.93e-05 s⁻¹ | kon [13]: 954000 M⁻¹ s⁻¹ | Kd [14]: 4.28 nM | koff [14]: 0.000108 s⁻¹ | kon [14]: 25300 M⁻¹ s⁻¹ | IL-36α-induced A431 IL-8 secretion IC50 [9]: 0.29 nM

B6: IL-36R-IL-23-04 (anti-IL-36R and anti-IL-23 bispecific antibody, VHH162_Hu11 on Hu29-19, Structure B) (bispecific antibody, human IgG1, kappa, L234A L235A)
heavy: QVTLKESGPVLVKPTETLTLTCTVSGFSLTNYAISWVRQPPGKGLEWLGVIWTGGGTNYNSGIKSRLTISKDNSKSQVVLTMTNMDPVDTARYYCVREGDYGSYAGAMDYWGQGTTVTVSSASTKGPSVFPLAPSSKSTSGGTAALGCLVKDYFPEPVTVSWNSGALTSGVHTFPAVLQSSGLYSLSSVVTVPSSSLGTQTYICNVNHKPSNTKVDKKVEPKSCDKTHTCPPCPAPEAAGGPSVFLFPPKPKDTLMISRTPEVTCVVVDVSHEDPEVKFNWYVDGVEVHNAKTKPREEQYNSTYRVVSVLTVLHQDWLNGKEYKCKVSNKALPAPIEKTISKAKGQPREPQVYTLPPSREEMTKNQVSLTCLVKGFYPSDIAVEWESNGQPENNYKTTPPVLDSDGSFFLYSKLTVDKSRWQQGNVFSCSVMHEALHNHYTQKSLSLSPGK
light: EVQLVESGGGLVQPGGSLRLSCAASGYSYRTQCLGWYRQAPGKQREAVATISGGGTSTYYSDSVKGRFTISQDNSKTTVYLQMNSLRAEDTAVYYCAKGLSVLGSWCHGGSSYEYTYSGQGTLVTVSSGGGGSGGGGSDIVLTQSPDSLAVSLGERATINCRASESVDYYGISSMHWFQQKPGQPPKLLIYRASNLESGIPARFSGSGSRTDFTLTISSLQAEDVAVYYCQQANKDPYTFGGGTKVEIKRTVAAPSVFIFPPSDEQLKSGTASVVCLLNNFYPREAKVQWKVDNALQSGNSQESVTEQDSKDSTYSLSSTLTLSKADYEKHKVYACEVTHQGLSSPVTKSFNRGEC
notes: as for B5
Kd [13]: 0.0702 nM | koff [13]: 6.02e-05 s⁻¹ | kon [13]: 858000 M⁻¹ s⁻¹ | Kd [14]: 17.7 nM | koff [14]: 0.000216 s⁻¹ | kon [14]: 12200 M⁻¹ s⁻¹ | IL-36α-induced A431 IL-8 secretion IC50 [9]: 0.34 nM

B7: Risankizumab (anti-IL-23 antibody control molecule) (antibody, human IgG1, kappa, L234A L235A, V domains shown)
VH: QVQLVQSGAEVKKPGSSVKVSCKASGYTFTDQTIHWMRQAPGQGLEWIGYIYPRDDSPKYNENFKGKVTITADKSTSTAYMELSSLRSEDTAVYYCAIPDRSGYAWFIYWGQGTLVTVSS
VL: DIQMTQSPSSLSASVGDRVTITCKASRDVAIAVAWYQQKPGKVPKLLIYWASTRHTGVPSRFSGSGSRTDFTLTISSLQPEDVADYFCHQYSSYPFTFGSGTKLEIKR
Kd [5]: 0.0651 nM | koff [5]: 4.91e-05 s⁻¹ | kon [5]: 754000 M⁻¹ s⁻¹ | EC50 [15]: 4.72 nM | IC50 [4]: 0.61 nM
